This note sets out measurements from patent US20240270804.

This series has as its target T1, myc- and green-fluorescent protein (GFP) tagged mAKAP 1694-1833 (UniProt Q9WVC7).
T1 sequence: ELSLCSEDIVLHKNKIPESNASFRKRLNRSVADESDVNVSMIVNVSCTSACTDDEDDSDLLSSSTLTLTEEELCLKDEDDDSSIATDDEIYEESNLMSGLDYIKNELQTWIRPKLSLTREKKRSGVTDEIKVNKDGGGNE

Consider “endogenous CaMKII (Ca2+/calmodulin-dependent protein kinase II) of neonatal rat ventricular myocytes”, for which the “HDAC4 phosphorylation (basal and Angiotensin II-induced) in neonatal myocytes” value was “both basal and Angiotensin II-induced HDAC4 phosphorylation in neonatal myocytes is inhibited by mAKAP 1694-1833 expression”.
